From publication PMC5705180

Target: Recombinant human IGF-II R (CI-MPR), cation-independent mannose-6-phosphate receptor (human) (UniProt P11717)
Test: SPR

| Kd | Substance |
| --- | --- |
| 28.9 nM | Bis-phosphoglycoprotein 30: bovine ribonuclease B carrying a bis-M6P-Man6GlcNAc2 glycan at Asn-34 (from UniProt P61823 27-150) (enzyme) |
| 168 nM | Phosphoglycoprotein 32: bovine ribonuclease B carrying the unnatural bis-M6P Man3GlcNAc2 glycan (from UniProt P61823 27-150) (enzyme) |

| Substance | Kd |
| --- | --- |
| Cyclic phosphoglycopeptide 34: HIV-1 ZM109 V1V2 cyclic peptide carrying two bis-M6P-Man6GlcNAc2 glycans at N160 and N173 | 2.35 nM |
